US6403764

Legend:
human IGFBP-1 [1] = target: T1, human IGFBP-1 (human, UniProt P08833 26-259); assay: competitive phage ELISA; IC50mut/IC50 G1S-A70V
T1 construct: mature; Secreted recombinant protein; also called IGFBP-I
T1 sequence (looked up): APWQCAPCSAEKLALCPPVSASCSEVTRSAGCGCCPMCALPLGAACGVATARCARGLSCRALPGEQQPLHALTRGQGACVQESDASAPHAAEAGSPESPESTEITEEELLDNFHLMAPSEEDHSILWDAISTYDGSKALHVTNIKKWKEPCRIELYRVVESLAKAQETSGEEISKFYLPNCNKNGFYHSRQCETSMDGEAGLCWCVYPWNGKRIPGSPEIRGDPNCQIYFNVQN

[2] = target: T2, recombinant human IGFBP-3 (human, UniProt P17936 28-291); assay: competitive phage ELISA; IC50mut/IC50 G1S-A70V
T2 construct: mature; Secreted recombinant protein
T2 sequence (P17936 28-291): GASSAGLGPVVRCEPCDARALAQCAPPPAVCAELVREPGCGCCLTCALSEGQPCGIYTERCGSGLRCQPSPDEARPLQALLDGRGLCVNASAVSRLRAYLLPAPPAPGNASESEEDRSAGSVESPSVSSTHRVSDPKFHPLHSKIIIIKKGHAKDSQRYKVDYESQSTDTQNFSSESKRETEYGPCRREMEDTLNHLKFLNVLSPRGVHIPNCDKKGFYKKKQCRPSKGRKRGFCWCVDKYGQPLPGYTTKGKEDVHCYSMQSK

human IGFBP-1 [3] = target: T1, human IGFBP-1; assay: competitive phage ELISA
Protocol: Phage particles were harvested and resuspended in PBS buffer as described in Lowman, H. B., "Phage Display of Peptide Libraries on Protein Scaffolds," in Cabilly, S. (ed.), *Combinatorial Peptide Library Protocols* (Humana Press Inc.: Totowa, N.J., 1998), pp. 249–264. Then phage concentrations were normalized to yield a maximal ELISA signal of 0.2–0.4 for each mutant (Lowman, in Cabilly, S. (ed.), supra). Threefold serial dilutions of soluble competitor were prepared on non-absorbent microtiter plates (Nunc, F, 96 wells) with binding buffer (0.5% TWEEN™ 20/PBS) containing phage at the previously-determined concentrations. The dilution range of competitor protein extended over six orders of magnitude, starting at 5 µM for IGFBP-1 and 500 nM for IGFBP-3. After blocking, the plates containing immobilized target were washed with 0.05% TWEEN™/PBS buffer and subsequently incubated with 80 µl/well of the premixed phage-competitor solutions for 1 hour at room temperature. […] Numbers in Table I represent mean±standard deviation of individually assessed $IC50$ values.
At least two different clones of every mutant were tested.

human IGFBP-1 [4] = target: T1, human IGFBP-1; assay: phage ELISA value repeated from Table I; IC50mut/IC50 G1S-A70V
[5] = target: T2, recombinant human IGFBP-3; assay: as above
[6] = target: T3, human IGFBP-1 (human), P08833; assay: competitive phage ELISA; IC50mut/IC50 G1S-A70V; conditions: remark: other sources report otherwise
T3 chain: T1 sequence (looked up)

[7] = target: T3, human IGFBP-1 (human), P08833; assay: phage ELISA value repeated from Table I; IC50mut/IC50 G1S-A70V; conditions: remark: other sources report otherwise
[8] = target: T2, recombinant human IGFBP-3; assay: competitive phage ELISA, IGFBP-3-coated wells, soluble IGFBP-3 competitor (FIG. 3B)
Protocol: Phage particles were harvested and resuspended in PBS buffer as described in Lowman, H. B., "Phage Display of Peptide Libraries on Protein Scaffolds," in Cabilly, S. (ed.), *Combinatorial Peptide Library Protocols* (Humana Press Inc.: Totowa, N.J., 1998), pp. 249–264. Then phage concentrations were normalized to yield a maximal ELISA signal of 0.2–0.4 for each mutant (Lowman, in Cabilly, S. (ed.), supra). Threefold serial dilutions of soluble competitor were prepared on non-absorbent microtiter plates (Nunc, F, 96 wells) with binding buffer (0.5% TWEEN™ 20/PBS) containing phage at the previously-determined concentrations. The dilution range of competitor protein extended over six orders of magnitude, starting at 5 µM for IGFBP-1 and 500 nM for IGFBP-3.

Q: For “IGF-I G7A displayed on phage (from UniProt P69168 267-424) (ligand)”, which relative IC50 (human IGFBP-1 [1]) is on record?
A: > 100

Q: What about the relative IC50 [2] of the same molecule?
A: 6.1

Q: “IGF-I S34A displayed on phage (from UniProt P69168 267-424) (ligand)” was tested. Which relative IC50 (human IGFBP-1 [1]) did it give?
A: 1.2

Q: What about the relative IC50 [2] of the same molecule?
A: 2.2

Q: What does the source list for “Ala(1-3)-IGF-I displayed on phage (from UniProt P69168 267-424) (ligand)”?
A: IC50 (human IGFBP-1 [3]): 90.4 nM; relative IC50 (human IGFBP-1 [1]): 11; relative IC50 [2]: 1.5

Q: “IGF-I G1S-A70V displayed on phage (from UniProt P69168 267-424) (ligand)” was tested. Which relative IC50 (human IGFBP-1 [1]) did it give?
A: 1

Q: What about the relative IC50 [2] of the same molecule?
A: 1

Q: And the relative IC50 (human IGFBP-1 [4])?
A: 1

Q: What about the relative IC50 [5] of the same molecule?
A: 1

Q: With “IGF-I G30A displayed on phage (from UniProt P69168 267-424) (ligand)” as the molecule, how does the relative IC50 (human IGFBP-1 [1]) read?
A: 0.9

Q: What about the relative IC50 [2] of the same molecule?
A: 0.8

Q: With “IGF-I S33A displayed on phage (from UniProt P69168 267-424) (ligand)” as the molecule, how does the relative IC50 (human IGFBP-1 [1]) read?
A: 1.1

Q: What about the relative IC50 [2] of the same molecule?
A: 1.3

Q: Which results are given for “IGF-I T29A displayed on phage (from UniProt P69168 267-424) (ligand)”?
A: relative IC50 (human IGFBP-1 [1]): 0.9; relative IC50 [2]: 1.6

Q: Which results are given for “IGF-I P28A displayed on phage (from UniProt P69168 267-424) (ligand)”?
A: relative IC50 (human IGFBP-1 [1]): 1.1; relative IC50 [2]: 1.9

Q: For “IGF-I Y31A displayed on phage (from UniProt P69168 267-424) (ligand)”, which relative IC50 (human IGFBP-1 [1]) is on record?
A: 0.8

Q: And the relative IC50 [2]?
A: 1

Q: With “IGF-I G32A displayed on phage (from UniProt P69168 267-424) (ligand)” as the molecule, how does the relative IC50 (human IGFBP-1 [1]) read?
A: 1.3

Q: And the relative IC50 [2]?
A: 1

B1: IGF-I F49A displayed on phage (ligand)
chain: SPETLCGAELVDALQFVCGDRGFYFNKPTGYGSSSRRAPQTGIVDECCARSCDLRRLEMYCAPLKPAKSV
notes: On phage; G1S-A70V template; also called IGF-F49A phage; not shown: Display partner: M13 gene III protein fragment (residues 249-406, mature count) and the junction to it
Q: With B1 as the molecule, how does the relative IC50 [6] read?
A: > 100

Q: And the relative IC50 [7]?
A: > 100

Q: And the “ratio of IC50 against G1S-A70V phage” value [8]?
A: < 4 fold
